For this test, the target named is SpyCatcher-tagged ferritin. Put plainly: SDS-PAGE of the covalent conjugate; purified SC-FN and rePO-ST mixed in vitro overnight (12 hours) at 4 °C in molar ratios 1:8 to 1:28; isopeptide bond between SpyTag and SpyCatcher; new band on SDS-PAGE.

For “SpyTag-tagged rePO (recombinant PcrV-OprI with SpyTag at the C-terminus) (from UniProt G3XD49 28-294; P11221 25-83)”, the proportion of conjugated ferritin stood at 70%.

Source of the values: paper PMC10321299.
